Data reported in publication doi:10.1101/2025.11.17.688879 (bioRxiv, 2025).

Biological target: the molecule itself
Test: native gel or EMSA

Protein | stoichiometry N
HA-NvSTING stably expressed in MEF Sting-/- cells (MEF^NvSTING) (natural protein, Nematostella vectensis) MRRAEENNGFGTIPKRRNQHTPFYASIGMIVVIIVAFTSYHITSYGDDRNRAMRQYSFTFSLAYLAFLVGELLRRCCLFAEEYRHIETRYNGSLKKAIQTTFSFGHNNVLFVASLLFFVVFVASNDPNGSSSVIQGNSTAEPHTEMRQTSGWQGLWGQFIISALLTPLVVHLLGLRELSKVEESQLNEKENKNVADGLAWSYYFGYLKFVLPELEKQIEKTSKFRSKEKFVKKMFILIPSNCFWDDKIPGSDYDPQNRITFEGNTEPLEKTRGGVFLRHYKHSVYEIKDGENEPWFCIMEYATPLLTLYDMSVAQPGELSREERDAQVVVFLRKLQDILEGDRACQGKYELVTFSPDRDLADVMLRKLKDSELEIGG | ≥ 4
HA-DrSTING stably expressed in MEF Sting-/- cells (MEF^DrSTING) (natural protein, Danio rerio) MSVMGEDALVPRARSRLPVMCAAGLGFLTLAVAWLLDSDKFSERAGIIAFGLMLERFIYCICLLAEELLFHSRQRYHGRMSEIFRACFRGSGILGMCAIFLMLMLGGVSFSVKQWSHFNLMCAGYMLLNSLGVLGPAPVEISEICEAKKMNVAHGLAWSFYIGYLKFLLPALEVNVREYSRRERLSSPRLHILLPLNARVPSKPEEEDTNVVFHENLPDLKLDRAGVRKRSYTNSVYKITHNNETFSCILEYATPLLTLYQMSQESSAGFGERERKQQVLLFYRTLSQILDNSLECRNRYRLILLNDEHTGDPHYLSRELFQNLKQQDGEIFMDPTNEVHPVPEEGPVGNCNGALQATFHEEPMSDEPTLMFSRPQSLRSEPVETTDYFNPSSAMKQN | ≥ 4
HA-MmSTING stably expressed in MEF Sting-/- cells (MEF^MmSTING) (natural protein, Mus musculus) MPYSNLHPAIPRPRGHRSKYVALIFLVASLMILWVAKDPPNHTLKYLALHLASHELGLLLKNLCCLAEELCHVQSRYQGSYWKAVRACLGCPIHCMAMILLSSYFYFLQNTADIYLSWMFGLLVLYKSLSMLLGLQSLTPAEVSAVCEEKKLNVAHGLAWSYYIGYLRLILPGLQARIRMFNQLHNNMLSGAGSRRLYILFPLDCGVPDNLSVVDPNIRFRDMLPQQNIDRAGIKNRVYSNSVYEILENGQPAGVCILEYATPLQTLFAMSQDAKAGFSREDRLEQAKLFCRTLEEILEDVPESRNNCRLIVYQEPTDGNSFSLSQEVLRHIRQEEKEEVTMNAPMTSVAPPPSVLSQEPRLLISGMDQPLPLRTDLI | ≥ 4
HA-MbSTING stably expressed in MEF Sting-/- cells (MEF^MbSTING) (natural protein, Monosiga brevicollis) MMVNLSDLSHLSQRGWAQVFVTLAAAAISIFYFSFSPFEVAAGICASIAAAGAVPLLFDAVHYLIAFCISAPDARPPLRTVWTKTRLQRWSGLSILTFIVLACGLYFASPSPMSASNLFAVFALSLCNSVFSAMVAPRCGRLEVVDLATHPNTVLFRDFGAASAMSYWHGYLQHIAGDRAALEERFRDSDVGGMRVPRKLYILVPQDCEVNASDNKYEGLKATEHYISPKPITIGGVVDREMGKHTLYTPSESAETASVAFAMELASPLNTMKNALKDAAEGLLELQSEAFYLTLRGILKQEGVLDQGNDEGMIKLVWGKNRSEVLKKMRAEDQYAMP | 4
